Literature values in paper PMC5347372.

Biological target: alpha-factor (Saccharomyces cerevisiae) (UniProt P01149)

- Kd: 7 nM
Substance: Ste2 (from UniProt D6VTK4)
